Results published in PMC5861428.

How the values were obtained:
[1] = tested on: Fab BL3-6 S97N (synthetic), PDB:6B14_1+PDB:6B14_2; test: filter binding
[2] = tested on: Fab clone 1 (synthetic), PDB:6B14_1+PDB:6B3K_2; test: filter binding
[3] = tested on: Fab clone 10 (Fab 10) (synthetic), PDB:6B14_1+PDB:6B3K_2; test: filter binding
[4] = tested on: Fab clone 11 (synthetic), PDB:6B14_1+PDB:6B3K_2; test: filter binding
[5] = tested on: Fab clone 12 (synthetic), PDB:6B14_1+PDB:6B3K_2; test: filter binding
[6] = tested on: Fab clone 13 (synthetic), PDB:6B14_1+PDB:6B3K_2; test: filter binding
[7] = tested on: Fab clone 15 (synthetic), PDB:6B14_1+PDB:6B3K_2; test: filter binding
[8] = tested on: Fab clone 17 (synthetic), PDB:6B14_1+PDB:6B3K_2; test: filter binding
[9] = tested on: Fab clone 18 (synthetic), PDB:6B14_1+PDB:6B3K_2; test: filter binding
[10] = tested on: Fab clone 2 (synthetic), PDB:6B14_1+PDB:6B3K_2; test: filter binding
[11] = tested on: Fab clone 3 (Fab 3) (synthetic), PDB:6B14_1+PDB:6B3K_2; test: filter binding
[12] = tested on: Fab clone 4 (synthetic), PDB:6B14_1+PDB:6B3K_2; test: filter binding
[13] = tested on: Fab clone 5 (synthetic), PDB:6B14_1+PDB:6B3K_2; test: filter binding
[14] = tested on: Fab clone 6 (synthetic), PDB:6B14_1+PDB:6B3K_2; test: filter binding
[15] = tested on: Fab clone 9 (synthetic), PDB:6B14_1+PDB:6B3K_2; test: filter binding
[16] = tested on: Fab BL3-6 (synthetic (humanized Fab4D5 framework phage library)), PDB:6B14_1+PDB:6B3K_2; test: hydroxyl-radical footprinting
[17] = tested on: Fab BL3-6 (synthetic (humanized Fab4D5 framework phage library)), PDB:6B14_1+PDB:6B3K_2; test: filter binding
[18] = tested on: Fab clone 14 (synthetic), PDB:6B14_1+PDB:6B3K_2; test: filter binding

Sequence | Kd [1] | Kd [2] | Kd [3] | Kd [4] | Kd [5] | Kd [6] | Kd [7] | Kd [8] | Kd [9] | Kd [10] | Kd [11] | Kd [12] | Kd [13] | Kd [14] | Kd [15] | Kd [16] | Kd [17] | Kd [18]
UGCGACCAUGGUGAGACCCGCCAUGGUCGC [N9RNA1 HP (AM HP)] | 9 nM | 11 nM | 9 nM | 9 nM | 7 nM | 11 nM | 10 nM | 8 nM | 9 nM | 10 nM | 9 nM | 11 nM | 8 nM | 7 nM | 13 nM | 30 nM |  | 
GUCCAGUAGGAACACUAUACUACUGGAUAAUCAAAGACAAAUCUGCCCGAAGGGCUUGAGAACAUCGAAACACGAUGCAGAGGUGGCAGCCUCCGGUGGGUUAAAACCCAACGUUCUCAACAAUAGUGA [WT-BLP] | 5 nM | 26 nM | 30 nM | 37 nM | 37 nM | 36 nM | 34 nM | 42 nM | 51 nM | 50 nM | 28 nM | 29 nM | 20 nM | 54 nM | 66 nM |  | 120 nM | 45 nM
GGCGACCAUGGAAACACCAUGGUCGC [WT-RNA HP (WT BL3-6 HP)] | 13 nM | 29 nM | 28 nM | 13 nM | 17 nM | 25 nM | 17 nM | 21 nM | 22 nM |  | 25 nM | 28 nM | 28 nM | 52 nM | 67 nM |  |  | 58 nM
